Patent US20210107988A1 (Genmab, published 2021)
Substitutions are numbered along the chain they refer to. Names and notes keep the numbering of the source.

T1: dimeric, His-tagged, C-terminally biotinylated ECD of FcγRIIA allotype 131H (Homo sapiens (Human), UniProt P12318 34-215, C-terminally biotinylated)
T1 sequence: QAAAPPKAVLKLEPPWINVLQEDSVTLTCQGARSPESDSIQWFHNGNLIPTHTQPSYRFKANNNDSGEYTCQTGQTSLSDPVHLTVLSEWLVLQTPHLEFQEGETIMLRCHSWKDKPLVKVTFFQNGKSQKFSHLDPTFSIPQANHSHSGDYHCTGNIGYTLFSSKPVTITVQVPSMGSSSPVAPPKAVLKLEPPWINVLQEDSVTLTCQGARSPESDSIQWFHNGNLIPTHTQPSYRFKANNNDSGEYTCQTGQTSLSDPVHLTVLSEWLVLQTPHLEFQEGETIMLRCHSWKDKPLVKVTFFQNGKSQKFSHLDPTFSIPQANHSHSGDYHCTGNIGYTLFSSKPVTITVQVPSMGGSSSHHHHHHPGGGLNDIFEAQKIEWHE

T2: dimeric, His-tagged, C-terminally biotinylated ECD of FcγRIIA allotype 131R (Homo sapiens (Human), UniProt P12318 36-215, C-terminally biotinylated)
T2 chain: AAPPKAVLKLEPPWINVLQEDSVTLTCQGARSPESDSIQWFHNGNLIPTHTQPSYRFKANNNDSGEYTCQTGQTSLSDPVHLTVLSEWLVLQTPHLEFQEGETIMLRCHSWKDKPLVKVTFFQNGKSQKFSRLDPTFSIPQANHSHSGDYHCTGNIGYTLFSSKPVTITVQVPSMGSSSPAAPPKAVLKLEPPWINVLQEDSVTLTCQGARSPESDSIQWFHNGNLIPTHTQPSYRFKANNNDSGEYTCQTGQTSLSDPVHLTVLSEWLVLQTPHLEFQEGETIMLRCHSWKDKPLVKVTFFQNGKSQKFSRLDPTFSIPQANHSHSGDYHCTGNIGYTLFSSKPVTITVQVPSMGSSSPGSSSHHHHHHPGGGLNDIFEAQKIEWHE

T3: dimeric, His-tagged, C-terminally biotinylated ECD of FcγRIIB (Homo sapiens (Human), UniProt P31994 44-223, C-terminally biotinylated)
T3 construct: also called diFCGR2B-HisBAP
T3 sequence: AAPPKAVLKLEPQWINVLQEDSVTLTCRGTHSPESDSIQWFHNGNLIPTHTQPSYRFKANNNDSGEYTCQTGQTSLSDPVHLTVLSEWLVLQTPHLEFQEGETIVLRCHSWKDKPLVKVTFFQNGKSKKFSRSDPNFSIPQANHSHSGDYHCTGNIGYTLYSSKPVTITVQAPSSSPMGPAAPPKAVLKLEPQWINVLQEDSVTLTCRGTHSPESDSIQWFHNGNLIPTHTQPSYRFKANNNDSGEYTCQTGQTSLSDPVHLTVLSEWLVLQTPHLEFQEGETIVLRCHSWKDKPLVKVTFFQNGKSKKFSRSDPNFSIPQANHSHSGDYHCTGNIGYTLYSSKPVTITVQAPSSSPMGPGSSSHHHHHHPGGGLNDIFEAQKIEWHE

B1: IgG1-CAMPATH-1H-E430G-K439E with introduced mutation G237A (antibody, name in EU numbering)
heavy: QVQLQESGPGLVRPSQTLSLTCTVSGFTFTDFYMNWVRQPPGRGLEWIGFIRDKAKGYTTEYNPSVKGRVTMLVDTSKNQFSLRLSSVTAADTAVYYCAREGHTAAPFDYWGQGSLVTVSSASTKGPSVFPLAPSSKSTSGGTAALGCLVKDYFPEPVTVSWNSGALTSGVHTFPAVLQSSGLYSLSSVVTVPSSSLGTQTYICNVNHKPSNTKVDKRVEPKSCDKTHTCPPCPAPELLGAPSVFLFPPKPKDTLMISRTPEVTCVVVDVSHEDPEVKFNWYVDGVEVHNAKTKPREEQYNSTYRVVSVLTVLHQDWLNGKEYKCKVSNKALPAPIEKTISKAKGQPREPQVYTLPPSREEMTKNQVSLTCLVKGFYPSDIAVEWESNGQPENNYKTTPPVLDSDGSFFLYSKLTVDKSRWQQGNVFSCSVMHGALHNHYTQESLSLSPGK
light: not shown
notes: also called IgG1-CAMPATH-1H-E430G-K439E-G237A
B2: IgG1-11B8-E430G-S440K with introduced mutation G237A (antibody, name in EU numbering)
heavy: EVQLVQSGGGLVHPGGSLRLSCTGSGFTFSYHAMHWVRQAPGKGLEWVSIIGTGGVTYYADSVKGRFTISRDNVKNSLYLQMNSLRAEDMAVYYCARDYYGAGSFYDGLYGMDVWGQGTTVTVSSASTKGPSVFPLAPSSKSTSGGTAALGCLVKDYFPEPVTVSWNSGALTSGVHTFPAVLQSSGLYSLSSVVTVPSSSLGTQTYICNVNHKPSNTKVDKRVEPKSCDKTHTCPPCPAPELLGAPSVFLFPPKPKDTLMISRTPEVTCVVVDVSHEDPEVKFNWYVDGVEVHNAKTKPREEQYNSTYRVVSVLTVLHQDWLNGKEYKCKVSNKALPAPIEKTISKAKGQPREPQVYTLPPSREEMTKNQVSLTCLVKGFYPSDIAVEWESNGQPENNYKTTPPVLDSDGSFFLYSKLTVDKSRWQQGNVFSCSVMHGALHNHYTQKKLSLSPGK
light: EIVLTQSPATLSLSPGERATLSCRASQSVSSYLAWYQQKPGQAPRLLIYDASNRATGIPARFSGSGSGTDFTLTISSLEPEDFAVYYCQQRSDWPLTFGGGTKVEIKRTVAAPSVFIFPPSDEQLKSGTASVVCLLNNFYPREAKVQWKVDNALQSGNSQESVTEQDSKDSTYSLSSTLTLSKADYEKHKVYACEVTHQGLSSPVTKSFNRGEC
notes: also called IgG1-11B8-E430G-S440K-G237A
B3: IgG1-b12 (human IgG1 antibody b12, HIV gp120-specific) (antibody)
heavy: not shown
light: EIVLTQSPGTLSLSPGERATFSCRSSHSIRSRRVAWYQHKPGQAPRLVIHGVSNRASGISDRFSGSGSGTDFTLTITRVEPEDFALYYCQVYGASSYTFGQGTKLERKRTVAAPSVFIFPPSDEQLKSGTASVVCLLNNFYPREAKVQWKVDNALQSGNSQESVTEQDSKDSTYSLSSTLTLSKADYEKHKVYACEVTHQGLSSPVTKSFNRGEC
notes: also called IgG-b12
B4: IgG1-Campath-E430G H310D/K439E (antibody)
heavy: B1 heavy with A241G, H314D
light: not shown
notes: also called IgG1-CAMPATH-1H-E430G-K439E with H310D; constant region IgG1m(f)-H310D-E430G-K439E
B5: IgG1-Campath-E430G H310R/S440K (antibody)
heavy: B1 heavy with A241G, H314R, E443K, S444K
light: not shown
notes: also called IgG1-CAMPATH-1H-E430G-S440K with H310R; constant region IgG1m(f)-H310R-E430G-S440K
B6: IgG1-Campath-E430G I253G/K439E (antibody)
heavy: B1 heavy with A241G, I257G
light: not shown
notes: also called IgG1-CAMPATH-1H-E430G-K439E with I253G; constant region IgG1m(f)-I253G-E430G-K439E
B7: IgG1-Campath-E430G I253K/S440K (antibody)
heavy: B1 heavy with A241G, I257K, E443K, S444K
light: not shown
notes: also called IgG1-CAMPATH-1H-E430G-S440K with I253K; constant region IgG1m(f)-I253K-E430G-S440K
B8: IgG1-Campath-E430G I253R/S440K (antibody)
heavy: B1 heavy with A241G, I257R, E443K, S444K
light: not shown
notes: also called IgG1-CAMPATH-1H-E430G-S440K with I253R; constant region IgG1m(f)-I253R-E430G-S440K
B9: IgG1-CAMPATH-1H-E430G-K439E-Q438N (antibody)
heavy: B1 heavy with A241G, Q442N
light: not shown
notes: also called IgG1-Campath-E430G Q438N/K439E
B10: IgG1-CAMPATH-1H-E430G-K439E-Q438R (antibody)
heavy: B1 heavy with A241G, Q442R
light: not shown
B11: IgG1-CAMPATH-1H-E430G-K439E-Y436K (antibody)
heavy: B1 heavy with A241G, Y440K
light: not shown
B12: IgG1-CAMPATH-1H-E430G-K439E-Y436N (antibody)
heavy: B1 heavy with A241G, Y440N
light: not shown
notes: also called IgG1-Campath-E430G Y436N/K439E
B13: IgG1-CAMPATH-1H-E430G-S440K-Q438N (antibody)
heavy: B1 heavy with A241G, Q442N, E443K, S444K
light: not shown
B14: IgG1-CAMPATH-1H-E430G-S440K-Q438R (antibody)
heavy: B1 heavy with A241G, Q442R, E443K, S444K
light: not shown
notes: also called IgG1-Campath-E430G Q438R/S440K
B15: IgG1-CAMPATH-1H-E430G-S440K-Y436K (antibody)
heavy: B1 heavy with A241G, Y440K, E443K, S444K
light: not shown
notes: also called IgG1-Campath-E430G Y436K/S440K
B16: IgG1-CAMPATH-1H-E430G-S440K-Y436N (antibody)
heavy: B1 heavy with A241G, Y440N, E443K, S444K
light: not shown

Molecular target: T1, dimeric, His-tagged, C-terminally …
Test: FcγR ELISA

Question: Does B1 bind?
Answer: Result: no binding (tested: 20 µg/mL)

Question: Does B2 bind?
Answer: Result: no binding (tested: 20 µg/mL)

Molecular target: dimeric, His-tagged, C-terminally biotinylated ECD of FcγRIIIA allotype 158F (C-terminally biotinylated)
Test: FcγR ELISA

Question: Does B2 bind?
Answer: Result: no binding (tested: 20 µg/mL)

Molecular target: T4, dimeric, His-tagged, C-terminally biotinylated ECD of FcγRIIIA allotype 158V (C-terminally biotinylated)
T4 construct: also called diFCGR3A-158V-HisBAP; IIIA-158V
Test: FcγR ELISA

Question: Does B1 bind?
Answer: Result: no binding (tested: 20 µg/mL)

Question: Does B2 bind?
Answer: Result: no binding (tested: 20 µg/mL)

Molecular target: T5, FcRnECDHis-B2M-BIO (biotinylated extracellular domain of human FcRn with a C-terminal His tag as dimer with … (human, UniProt P55899 24-297)); P61769 21-119, biotinylated (site not stated))
T5 construct: Coated on Streptawell plates at 5 µg/mL; also called FcRnhsECDHis
T5 sequence (P55899 other isoform, or with tags, fused parts or gaps limits assumed, chain 1 of 2): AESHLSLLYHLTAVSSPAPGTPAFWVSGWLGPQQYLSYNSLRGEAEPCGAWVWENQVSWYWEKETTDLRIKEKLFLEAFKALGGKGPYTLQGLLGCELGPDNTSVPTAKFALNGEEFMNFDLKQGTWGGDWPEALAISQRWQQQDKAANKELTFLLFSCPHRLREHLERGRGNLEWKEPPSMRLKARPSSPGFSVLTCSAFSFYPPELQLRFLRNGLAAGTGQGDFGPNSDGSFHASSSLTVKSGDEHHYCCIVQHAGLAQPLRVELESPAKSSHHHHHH
T5 sequence (P61769 21-119 limits assumed, chain 2 of 2): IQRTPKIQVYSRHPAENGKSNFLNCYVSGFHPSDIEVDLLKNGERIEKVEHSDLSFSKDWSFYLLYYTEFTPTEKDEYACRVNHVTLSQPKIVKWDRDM
Test: FcRn ELISA, pH 6.0

Question: Does B3 bind?
Answer: Result: binds

Molecular target: T5, FcRnECDHis-B2M-BIO (biotinylated …)
Test: FcRn ELISA, pH 7.4

Question: Does B4 bind?
Answer: Result: no binding (tested: 40 µg/mL)

Question: Does B5 bind?
Answer: Result: no binding (tested: 40 µg/mL)

Question: Does B6 bind?
Answer: Result: no binding (tested: 40 µg/mL)

Question: Does B7 bind?
Answer: Result: no binding (tested: 40 µg/mL)

Question: Does B8 bind?
Answer: Result: no binding (tested: 40 µg/mL)

Molecular target: T1, dimeric, His-tagged, C-terminally …
Test: FcγR ELISA, 20 µg/mL antibody

Question: Does B9 bind?
Answer: Result: binds

Question: Does B10 bind?
Answer: Result: binds

Question: Does B11 bind?
Answer: Result: binds

Question: Does B12 bind?
Answer: Result: binds

Question: Does B13 bind?
Answer: Result: binds

Question: Does B14 bind?
Answer: Result: binds

Question: Does B15 bind?
Answer: Result: binds

Question: Does B16 bind?
Answer: Result: binds

Molecular target: T2, dimeric, His-tagged, C-terminally …
Test: FcγR ELISA, 20 µg/mL antibody

Question: Does B9 bind?
Answer: Result: binds

Question: Does B10 bind?
Answer: Result: binds

Question: Does B11 bind?
Answer: Result: binds

Question: Does B12 bind?
Answer: Result: binds

Question: Does B13 bind?
Answer: Result: binds

Question: Does B14 bind?
Answer: Result: binds

Question: Does B15 bind?
Answer: Result: binds

Question: Does B16 bind?
Answer: Result: binds

Molecular target: T3, dimeric, His-tagged, C-terminally …
Test: FcγR ELISA, 20 µg/mL antibody

Question: Does B9 bind?
Answer: Result: binds

Question: Does B10 bind?
Answer: Result: binds

Question: Does B11 bind?
Answer: Result: binds

Question: Does B12 bind?
Answer: Result: binds

Question: Does B13 bind?
Answer: Result: binds

Question: Does B14 bind?
Answer: Result: binds

Question: Does B15 bind?
Answer: Result: binds

Question: Does B16 bind?
Answer: Result: binds
